Data on two molecules can be found in article PMC6221140.

Test in all cases: two-hybrid; BACTH in E. coli BTH101 (cya); full length proteins fused to the C-terminus of T18 (pUT18C) or T25 (pKT25) of CyaA; blue colonies on X-Gal/IPTG plates, 30°C, 24 h, and β-galactosidase activity of liquid cultures in Miller units; biological duplicate
Assay [1] deals with SpoIIQ (Clostridium difficile).
Assay [2] deals with SpoIIIAH (Clostridium difficile).
The target of assay [3] is SpoIIP H142R (Clostridium difficile).
In assay [4] the target is SpoIIM (Clostridium difficile).

On to SpoIIQ (natural protein), for which the β-galactosidase activity in assay [1] is 743 MU; in assay [2], 701 Miller Units.

B1: SpoIID (natural protein)
chain: MKNPLVVLLGFVTCSVLVPSLITLVSYKNVELTEKPESPVSINKTIKKSDIEDKGNKEEKNTVNYETVNKKAPIINVYNHITGKTEKMDMENYLCGVLAGEMSSEFDIEALKAQSVAARTYVVYKQEHGKSSKHKNAVVCTDYKHCQEYKSYDTLKKLNGEEWIKNKYSKIQEAVRGTKGQIITYNDKAILPLYFSTSSGKTENSEEVFSAKYPYLKSVESPYDKYSPKFASTLKISNTDFVKSLRRAYSTIVIDVNNLSKQVSITKRSDAGTVEKIKLGNKELTGKDIRTVFKLNSANFDIKFGEGYIDFVVKGYGHGVGMSQWGAEGMAEEGYKYYDILSHYYTDTKIKDIY
For the molecule B1, the β-galactosidase activity in assay [1] was 761 MU; in assay [3], 229 MU; in assay [2] it was 656 MU; in assay [4], 699 MU.
